This is an account of results in PMC7610652 (Nature structural & molecular biology, 2021).

The target in experiment [1] is RPABC5, subunit of human RNA polymerase III (human, UniProt P62875 1-67). As to the kind of experiment: cryo-EM structure.
Experiment [2] has as its target T1, RPC2, subunit of human RNA polymerase III (human, UniProt Q9NW08 1-1133).
T1 sequence: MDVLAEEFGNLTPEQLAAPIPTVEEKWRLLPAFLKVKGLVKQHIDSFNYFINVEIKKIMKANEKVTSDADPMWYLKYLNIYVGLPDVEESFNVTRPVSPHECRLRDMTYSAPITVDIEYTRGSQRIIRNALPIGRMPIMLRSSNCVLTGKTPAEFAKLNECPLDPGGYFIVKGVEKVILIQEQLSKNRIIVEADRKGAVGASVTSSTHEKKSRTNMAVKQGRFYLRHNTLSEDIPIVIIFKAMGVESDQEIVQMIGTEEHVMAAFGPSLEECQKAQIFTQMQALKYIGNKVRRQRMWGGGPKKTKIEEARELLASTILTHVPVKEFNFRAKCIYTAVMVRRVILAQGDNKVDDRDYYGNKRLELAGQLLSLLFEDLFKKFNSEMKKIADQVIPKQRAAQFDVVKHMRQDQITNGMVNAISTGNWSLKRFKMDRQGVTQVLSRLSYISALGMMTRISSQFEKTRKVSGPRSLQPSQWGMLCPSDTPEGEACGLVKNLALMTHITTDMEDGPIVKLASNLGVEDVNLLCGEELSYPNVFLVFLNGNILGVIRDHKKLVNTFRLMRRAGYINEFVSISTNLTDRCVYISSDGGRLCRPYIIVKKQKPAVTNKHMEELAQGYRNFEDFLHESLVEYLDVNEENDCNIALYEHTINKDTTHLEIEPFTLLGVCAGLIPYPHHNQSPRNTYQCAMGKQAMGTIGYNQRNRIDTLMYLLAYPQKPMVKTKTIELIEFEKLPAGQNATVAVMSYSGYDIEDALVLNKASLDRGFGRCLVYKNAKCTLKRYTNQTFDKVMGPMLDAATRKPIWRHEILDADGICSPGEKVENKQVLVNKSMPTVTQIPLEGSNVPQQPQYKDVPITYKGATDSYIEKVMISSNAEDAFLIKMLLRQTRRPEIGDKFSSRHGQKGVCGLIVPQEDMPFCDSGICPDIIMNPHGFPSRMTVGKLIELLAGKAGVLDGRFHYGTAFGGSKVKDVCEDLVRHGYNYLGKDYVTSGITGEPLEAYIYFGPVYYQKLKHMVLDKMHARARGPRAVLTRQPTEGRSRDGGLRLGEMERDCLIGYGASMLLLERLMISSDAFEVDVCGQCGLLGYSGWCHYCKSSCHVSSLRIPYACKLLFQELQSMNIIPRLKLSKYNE
As to the kind of experiment: cryo-EM structure.

B1: RPC5, subunit of the human RNA polymerase III heterodimer (natural protein)
chain: MANEEDDPVVQEIDVYLAKSLAEKLYLFQYPVRPASMTYDDIPHLSAKIKPKQQKVELEMAIDTLNPNYCRSKGEQIALNVDGACADETSTYSSKLMDKQTFCSSQTTSNTSRYAAALYRQGELHLTPLHGILQLRPSFSYLDKADAKHREREAANEAGDSSQDEAEDDVKQITVRFSRPESEQARQRRVQSYEFLQKKHAEEPWVHLHYYGLRDSRSEHERQYLLCPGSSGVENTELVKSPSEYLMMLMPPSQEEEKDKPVAPSNVLSMAQLRTLPLADQIKILMKNVKVMPFANLMSLLGPSIDSVAVLRGIQKVAMLVQGNWVVKSDILYPKDSSSPHSGVPAEVLCRGRDFVMWKFTQSRWVVRKEVATVTKLCAEDVKDFLEHMAVVRINKGWEFILPYDGEFIKKHPDVVQRQHMLWTGIQAKLEKVYNLVKETMPKKPDAQSGPAGLVCGDQRIQVAKTKAQQNHALLERELQRRKEQLRVPAVPPGVRIKEEPVSEEGEEDEEQEAEEEPMDTSPSGLHSKLANGLPLGRAAGTDSFNGHPPQGCASTPVARELKAFVEATFQRQFVLTLSELKRLFNLHLASLPPGHTLFSGISDRMLQDTVLAAGCKQILVPFPPQTAASPDEQKVFALWESGDMSDQHRQVLLEIFSKNYRVRRNMIQSRLTQECGEDLSKQEVDKVLKDCCVSYGGMWYLKGTVQS
On to B1, for which the binding result in experiment [1] and in experiment [2] was “binds” throughout.
